Data taken from the RNAGym collection of RNA variant scans (doi:10.1073/pnas.2313332121).

B1: TPR t1 (parent)
chain: GACCAAUCUGCCCUCAGAGCUCGAGAACAUCUUCGGAUGCAGAGGAGGCAGGCUUCGGUGGCGCGAUAGCGCCAACGUCCUCAACCUCCAAUGCAUCCCACCACAUGAUGAUGCCUGAAGAGCCUUGGUUUUUUG

Variants of: B1
Test: polymerase ribozyme fitness, log enrichment relative to wild type (log ratio); higher = more active; in vitro selection for triplet polymerase activity
Summary of the method: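 To select mutant libraries of each subunit of a heterodimeric triplet polymerase ribozyme, built by PCR and transcribed, each was annealed with a biotinylated primer, partner subunit and triplets, then incubated frozen at −7 °C. Extended constructs were gel-excised, captured on streptavidin beads and amplified by RT-PCR, in one round carried out in triplicate. Illumina sequencing of input and output libraries kept genotypes with ≥10 input reads and ≥1 read per output. Fitness is the base-2 logarithm of genotype enrichment relative to wild-type enrichment, from inverse-variance-weighted replicate averages.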

Row | Variant | polymerase ribozyme fitness (log ratio)
1 | GACCAAUCUGCCCUCAGAGCUCGAGAACUUCUUCGGAUGCAGAGGAGGAAGGCUUCGGUGGCGUGAUAGCGCCAACGUCCUAAACCUCCAAUGCAUGCCACCACAUGAUGAUGCCUGAAGGGCCUUGGUUUUCUG [A29U C49A C64U C82A C97G A121G U133C] | -3.41
2 | GACCAAUCUGCCCUCAGAGCUCGAGAACAUCUUCGGAUGCAGAGGAGGCAGGCUUCGGUAGCGCGAUAGCGCCAACGUCCUCAACCUCCAAUGCAUCCCACCACAUGAUGAUGCCUGAAGAGCCUUGGUUAUUUG [G60A U131A] | 0.546
3 | GACUAAUCUGCCCUCAGGGCUCGAGAACAUCUUCGGAUGCAGAGGAGGCAGGCUUCGAUGGCGCGAUAUCGCCAACGUCCUCAACCUCCAAUGCAUCCCACCACAUGAUGAUGCCUGAAGAGCCUUGGUUUUUUG [C4U A18G G58A G69U] | -2.44
4 | GACCAAUCUGCCCUCAGAGCUCGAGAACAUCUUCGGAUGCAGAGGAGGCAGGCUUCGGUGGCGCGAUAGCGCCAAGGUCCUCAACCUCCAAUGCAUCCCACCACAUGAUGAUGUCUGAAGAGCCUUGGUUUUUUG [C76G C114U] | -2.74
5 | GACCAAUCUGCCCUCAGAGCUAGAGAACAUCUUCGGAUGCAGAGGAGGCAGGCUUCGGUGGCGUGAUAGCGCCAACGUCCUCAACCUCCAAUGCAUCCCACCACAUGAUGAUGGCUGAAGAGCCUUGGUUUUUUU [C22A C64U C114G G135U] | -5.66
6 | GACCAAUCUGCCCUCAGAGCUCGAGAACAUCUUCGGAUGCAGAGGAGGCAGGCUUCGGUGGCGCGAUAGCGCUAACGUCCUCAACUUCCAAUGCACCCCACCACAUGAUGAUGCCUGAGGAGCCUUGGUUCUUUG [C73U C86U U96C A119G U131C] | 0.735
7 | GACCAAUCUGCCCGCAGAGCUCGAGAACAUCUUCGGAUGCAGAGGAGGCAGGCUUCGGUGGCGCGAUAGCGCCAACGUCCUCAACCUCCAAUGCAUCCCACCACAUGAUGAUGCCUGAAGAGCCAUGGUUUUUUG [U14G U125A] | -2.09
8 | GACCAAUCUGCCCUCAGAGCUCGAGAACAUCUUCGGAUGCAGAGUAGGCAGGCUUCGGUGGCGCGAUAGCGCCAACGUCCUCAACCUCCAAUGCAUCCCACCACAUGAUGAUGCCCGAAGAGCCUUGGUUUUUUG [G45U U116C] | -1.67
9 | GACCAAUCUGCACUCAGAGAUCGAGAACAUCUUCGGAUGCAGAGGAGGCAGGCUUCGGUGGCGCGAUAGCGCCAACGUCCUCAACCUCCAAUGCAUCCCACCACAUGAUGAUGCCUGAAGAGCCUUGGUUUUUUG [C12A C20A] | -2.37
10 | GACCGAUCUGCCCUCAGAGCUCGAGAACAUCUUCGGAUGCAGAGGAGGCAGGCUUCGGUGGCGCGAUAGCGCCAACGACCUCAACCUCCAAUGCCUCCCACCACAGGAUGAUGCCUGAAGAGCCUUGGUUUUUUG [A5G U78A A95C U106G] | -3.66
11 | GACCAAUCUGCCCUCAGAGCUCGAGAACAUCUUCGGAUGCAGAGGAGGCAGGCUUCGGUGGAGCGAUAUCGCCAACGUCCUCAACCUCCAAUGCAUCCCACCACAUGAUGAUGCCUGAAGAGCCUUGGUUUUUUG [C62A G69U] | -3.2
12 | GAUCAAUCUGCCCUCAGAGCUCGAGAACAUCUUCGGAUGCAGAGGAGGCAGGCUUCGGUGGCGCGAUAGUGCCAACGUCCUCAACCUCCAAUGCAUCCCACCACAUGAUGAUCCCUGAAGAGCCUUGGUUUUUUG [C3U C70U G113C] | -3.44
13 | GACCGAUCUGCCCUCAGUGCUCGAGAACAUCUUCGGAUGCAGAGGAGGCAGGCUUCGGUGGCGCGAUAGCGCCAACGUCCUCAACCUCCAAUGCAUCCCACCUCAUGAUGAUGACUGAAUAGCCUUGGUUUUUUG [A5G A18U A103U C114A G120U] | -3.91
14 | GACCAAUCUGCCCUCAGAGCUCGAGAACAUCUUCGGAUGCAGAAGAGGCAGGCUGCGGUGGCCCGAUAGCGCCAACGUCCUCAACCUCCAAUGCAUCCCACCACAUGAUGAUGCCUGAAGAGCCUUGGUUUUUUG [G44A U55G G63C] | -0.567
15 | GACCAAUCUGCCCUCAGAGCUCGAGAACAUCUUCGGAUGCAGAGGAGGCAGACUUCGGUGGCGCGAUAGCGCAAACGUCCUCAACCUCCAAUGCAUCCCACCACAUGAUGAUGCCUGAAGAGCCUUGGUUUUUUG [G52A C73A] | -0.179
16 | GACCAAUCUGCCCUCAGAGCUCGUGAACAUCUUCGGAGGCAGAGGAGGCAGGCUUCGGUGGCGCGAUAGCGCCAACGUCCUCAACCUCCAAUGCAUCCCACCACAUGAUGAUGACUGAAGAGCCUGGGUUUAUUG [A24U U38G C114A U126G U132A] | -6.67
17 | GACCAAUCUGCCCUCAGAGCUCGAGAACAUCUUCGGAUGCAGAGGAGGCAGGCUUCGGUGGCGCGAUAGCGCCAACGUCCUCAAACUCCAAUGCAUCCCACCACAUGAUGAUGCCUGAAGAGCCUUUGUUUUUUG [C85A G127U] | -4.56
18 | GACCAAUCUGCCCUCAGAGCUCGAGGACAUCUUCGGAUGCAGAUGAGGCAGGCUGCGGUGGCGCGAUAGCGCCAACGUCCUCAACCUUCAAUGCAUCCCACCACAUGAUGAUGCCUGAAGAGCCUUGGUUUUUUG [A26G G44U U55G C88U] | -3.03
19 | GACCAAUCUGCCCUCAGAGCUCGAGAACUUCUUCGGAUGCAGAUGAGGCAGGCUUCGGUGGCGCGAUAGCGCCAACGUCCUCAACCUCCAAUGCAUCCCACCACAUGAUGGUGCCUGAAGAGCGUUGGUUUUUUG [A29U G44U A111G C124G] | -3.58
20 | GACCAAUCUGGCCUCAGAGCUCGAGAACAUCUUCGGAUGCAGAGGAGGCAGGCUUCGGUGGCGCGAUAGCGCCAACGUCCUCAACCUCCAAUGCAACCCACCACAUGAUGAAGCCUGAAGAACCUUGCUUUUUUG [C11G U96A U112A G122A G128C] | -1.26
21 | GACCAAUCUGCCCUCAGCGCUCGAGAACAUCUUCGGAUGCAGAGGAGGCAGGCUUCGGUGGCGCGAUAGCGCCAACGUCCUCAACCUCCAAUGCAUCCCACCACAUGAUGAGGCCUGAAGAGCCUUGGUUUUUUG [A18C U112G] | -3
